Test results reported in IntAct's records for PubMed 23454188.

Molecular target: gima7_human GIMAP7 (UniProt Q8NHV1)
Sequence (Q8NHV1 whole entry): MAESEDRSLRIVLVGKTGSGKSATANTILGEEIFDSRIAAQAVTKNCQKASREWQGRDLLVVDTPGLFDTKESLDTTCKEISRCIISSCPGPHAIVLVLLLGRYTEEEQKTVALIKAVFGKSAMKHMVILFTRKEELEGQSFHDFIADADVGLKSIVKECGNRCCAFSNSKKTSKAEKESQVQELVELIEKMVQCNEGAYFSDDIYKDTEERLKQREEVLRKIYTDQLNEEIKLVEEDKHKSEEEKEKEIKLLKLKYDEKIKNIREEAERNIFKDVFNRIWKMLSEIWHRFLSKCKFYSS

GTPase IMAP family member 2 (Homo sapiens), Q9UG22 R117D, sequence (Q9UG22 whole entry R117D): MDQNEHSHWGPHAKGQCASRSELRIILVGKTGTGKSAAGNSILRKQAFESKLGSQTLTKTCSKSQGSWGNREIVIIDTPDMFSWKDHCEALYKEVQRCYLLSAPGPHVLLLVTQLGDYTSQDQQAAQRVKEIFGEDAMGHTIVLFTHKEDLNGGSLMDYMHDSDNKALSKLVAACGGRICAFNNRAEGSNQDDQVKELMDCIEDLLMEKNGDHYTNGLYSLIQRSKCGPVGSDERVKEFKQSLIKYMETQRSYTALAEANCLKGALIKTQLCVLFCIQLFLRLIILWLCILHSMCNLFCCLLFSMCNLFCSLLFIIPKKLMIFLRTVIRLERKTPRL
GTPase IMAP family member 2 (Homo sapiens), Q9UG22 S54A, sequence (Q9UG22 whole entry S54A): as the sequence (Q9UG22 whole entry R117D) above, with S54A, D117R counted along it

effect of a mutation on the interaction	Substance
disrupting interaction strength	GTPase IMAP family member 2 (Homo sapiens), Q9UG22 R117D
disrupting interaction strength	GTPase IMAP family member 2 (Homo sapiens), Q9UG22 S54A
